Reference: the supplement of paper PMC12764529
± gives the half width of the 95% confidence interval.

Experiments:
[1] = folding stability dG unfold from trypsin proteolysis; higher = more stable
Summary of the method: (§1)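 Designed mini-proteins (under 80 residues, no cysteine) in a PA-tagged cDNA display construct were digested with trypsin and chymotrypsin. Each protease was used at 11 concentrations (threefold dilutions) plus a no-protease condition, followed by sequencing. K50 was inferred by Bayesian fitting of sequencing counts, and unfolding free energy was derived against a sequence-predicted unfolded-state K50 and a shared folded-state K50, per protease or combined. Only designs with AlphaFold2 dimer inter-PAE above 15 were kept.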

[2] = folding stability dG unfold from chymotrypsin proteolysis; higher = more stable
Summary of the method: as §1

[3] = folding stability dG unfold (combined trypsin and chymotrypsin); higher = more stable
Summary of the method: as §1

Row | Sequence | folding stability dG unfold [1] [kcal/mol] | folding stability dG unfold [2] [kcal/mol] | folding stability dG unfold [3] [kcal/mol]
1 | SAGGSAGGSAGGEKIVLKVKPGDTVEVNGKTIKVPPGALITFDKKTKKLTIEPLSPEDLSAGGSAGGSAGGS [r10_353_TrROS_Hall] | 0.954 ± 0.058 | 1.14 ± 0.26 | 1.11 ± 0.19
2 | SAGGSAGGSAGGEKPKYIIIPATLTVPVLTKEGEGEKVEYKEITLLLIINPDTNEITVSSAGGSAGGSAGGS [r10_533_TrMRF] | 2.7 ± 0.15 | 3.07 ± 0.07 | 2.86 ± 0.22
3 | SAGGSAGGSAGGEKTIRITVKNENGETLEIEVSEEDAEELLKALEDAGISLEEITRIEPVSAGGSAGGSAGG [r7_745_TrROS_Hall] | 1.92 ± 0.12 | 1.62 ± 0.098 | 1.8 ± 0.15
4 | SAGGSAGGSAGGEKVTLTLELPAEEIEELAKALAPPGAKVKITKISYDKENKKVTIEIESAGGSAGGSAGGS [r10_1030_TrROS_Hall] | 0.937 ± 0.061 | 1.4 ± 0.026 | 1.23 ± 0.07
5 | SAGGSAGGSAGGELNIDDIKIDWFPADDMDDRYIFTEKIRGPNGKPTMEVTFWLPAGDLSAGGSAGGSAGGS [r10_155_TrROS] | 0.262 ± 0.068 | -0.261 ± 0.62 | 0.00836 ± 0.18
6 | SAGGSAGGSAGGEPDKVSIHINITEEFIEQIKNGKPIPPWARPAIKYAQKKGKKVEIVWSAGGSAGGSAGGS [r10_890_TrROS] | -1.04 ± 0.61 | -0.532 ± 0.53 | -0.498 ± 0.26
7 | SAGGSAGGSAGGEPIPTKTIEVDEATGTVTVTVTFPPPNETVTVTRPAPPDVSLEEVLASAGGSAGGSAGGS [r10_676_JUSTAS] | 1.07 ± 0.17 | 1.58 ± 0.15 | 1.59 ± 0.15
8 | SAGGSAGGSAGGERVVRFPYTGTLEDVLEAARRLRRLGGVEVGYDPENGVLLARFKGGGLSAGGSAGGSAGG [r7_219_TrMRF] | 0.54 ± 0.056 | 1.6 ± 0.046 | 1.25 ± 0.049
9 | SAGGSAGGSAGGETITIKNKKTNETVTIEKDKDGNYTITYPDGSKKTYKKGEKISKSALSAGGSAGGSAGGS [r10_98_TrROS_Hall] | 0.162 ± 0.13 | 1.18 ± 0.14 | 0.9 ± 0.18
10 | SAGGSAGGSAGGEWRTLYIPIPGMPPEFIETFALELLDDGAKVEDIEWNPNNGYLMITVRSAGGSAGGSAGG [r7_906_TrROS] | 1.37 ± 0.029 | 2.05 ± 0.056 | 1.82 ± 0.075
11 | SAGGSAGGSAGGFIPEDGHPDETVQLTTSLTLTTSYTLPNGETVTETHTVPVLFTYKVPSAGGSAGGSAGGS [r10_1135_TrMRF] | 0.433 ± 0.02 | 1.02 ± 0.071 | 0.797 ± 0.054
12 | SAGGSAGGSAGGFVLTFTLPDSVVRITLPEDANPEEIKQRLLEEHGVPIELRLIPPSNPLSAGGSAGGSAGG [r11_805_JUSTAS] | 0.726 ± 0.12 | 0.664 ± 0.38 | 0.782 ± 0.2
13 | SAGGSAGGSAGGGDFEKVKVRFRYVNPDGGPERDIEIEVEARKEDIPRLLKELKDAGLIESAGGSAGGSAGG [r7_618_TrMRF] | 0.982 ± 0.054 | 1.25 ± 0.15 | 1.23 ± 0.099
14 | SAGGSAGGSAGGGISEAAASGTPLLVTYTDESGNVTEVVVRPDSPVPLPGVVSAEVRLESAGGSAGGSAGGS [r10_700_JUSTAS] | 1.05 ± 0.03 | 0.167 ± 0.023 | 0.666 ± 0.037
15 | SAGGSAGGSAGGGIVIEGDIESIEVEKNPDTDYYLVTVRFKSTDKPYTFVFKKDEKLDVSAGGSAGGSAGGS [r10_819_TrMRF] | 1.49 ± 0.036 | 2.16 ± 0.21 | 1.77 ± 0.23
16 | SAGGSAGGSAGGGIYEVDENGNPLPPRPYLVLKIGYEVGYLPDGGAGLSLNIEIYPVYDASAGGSAGGSAGG [r7_572_TrMRF] | 3.18 ± 0.2 | 4.25 ± 0.13 | 3.79 ± 0.23
17 | SAGGSAGGSAGGGKEISLDELIDIAIELGYPGTIEDLLADPNIKIYPNPYDDKPVILIPDSAGGSAGGSAGG [r7_180_TrMRF] | 1.7 ± 0.065 | 0.576 ± 0.053 | 1.25 ± 0.086
18 | SAGGSAGGSAGGGKKILGVQPELFYDPENGTLYVKTVAVGEDENGAPGDADISVEPFPLLSAGGSAGGSAGG [r7_892_TrMRF] | 0.242 ± 0.053 | -0.596 ± 0.54 | -0.277 ± 0.26
19 | SAGGSAGGSAGGGKKKVTVEFVIKVPKNSKPVFFTIKGGIKVEFYPIPDTNYALVKVTFGSAGGSAGGSAGG [r7_796_TrMRF] | 2.46 ± 0.19 | 3.92 ± 0.12 | 3.52 ± 0.15
20 | SAGGSAGGSAGGGKLAIRVEIEPVRTETRLRADGSLETRTEFRVRIEIRPVGNPDDPRNNSAGGSAGGSAGG [r7_523_TrMRF] | 2.89 ± 0.059 | 4.36 ± 0.056 | 3.89 ± 0.073
21 | SAGGSAGGSAGGGKPVKVIVVEVGGKKVLVTFDEDTGKLTVYNLDTGKTETVTVSPEDLSAGGSAGGSAGGS [r10_669_TrROS_Hall] | 1.83 ± 0.12 | 1.67 ± 0.066 | 1.77 ± 0.16
